Values belong to the molecule of their own block, whether it stands above or below them.
Key:
rat GALR1 receptor (rat) = rat GALR1 receptor (rat) (UniProt Q62805); assay: cell-based or functional assay
[1] = biological target: human GALR3 receptor (human) (UniProt O60755); assay: cell-based or functional assay
rat GALR2 receptor (rat) = rat GALR2 receptor (rat) (UniProt O08726); assay: cell-based or functional assay
rat GALR3 receptor = biological target: T1, rat GALR3 receptor (rat, UniProt O88626 1-370); assay: porcine 125I-galanin competition binding, 293 #105
T1 construct: also called rGALR3; rGalR3
T1 sequence: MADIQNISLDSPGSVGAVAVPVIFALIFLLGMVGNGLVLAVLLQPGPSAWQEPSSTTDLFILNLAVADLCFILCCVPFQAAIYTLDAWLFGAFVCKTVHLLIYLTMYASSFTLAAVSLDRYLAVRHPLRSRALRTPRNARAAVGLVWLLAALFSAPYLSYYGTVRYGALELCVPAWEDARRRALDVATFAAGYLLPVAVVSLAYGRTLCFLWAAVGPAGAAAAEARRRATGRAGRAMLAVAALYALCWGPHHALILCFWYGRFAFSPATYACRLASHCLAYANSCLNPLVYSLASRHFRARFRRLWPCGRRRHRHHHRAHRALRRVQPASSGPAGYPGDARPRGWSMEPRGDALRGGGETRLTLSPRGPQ

Chain of rat GALR1 receptor (rat) (Q62805 whole entry): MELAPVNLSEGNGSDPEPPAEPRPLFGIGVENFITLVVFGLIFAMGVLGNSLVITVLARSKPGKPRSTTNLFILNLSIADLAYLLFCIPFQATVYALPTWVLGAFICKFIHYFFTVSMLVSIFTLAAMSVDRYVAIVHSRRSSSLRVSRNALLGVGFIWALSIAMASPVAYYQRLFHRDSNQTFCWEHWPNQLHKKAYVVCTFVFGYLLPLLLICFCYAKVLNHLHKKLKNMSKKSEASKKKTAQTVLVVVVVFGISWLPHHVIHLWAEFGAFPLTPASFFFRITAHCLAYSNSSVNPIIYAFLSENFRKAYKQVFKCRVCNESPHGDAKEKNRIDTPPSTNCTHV
Chain of rat GALR2 receptor (rat) (O08726 whole entry): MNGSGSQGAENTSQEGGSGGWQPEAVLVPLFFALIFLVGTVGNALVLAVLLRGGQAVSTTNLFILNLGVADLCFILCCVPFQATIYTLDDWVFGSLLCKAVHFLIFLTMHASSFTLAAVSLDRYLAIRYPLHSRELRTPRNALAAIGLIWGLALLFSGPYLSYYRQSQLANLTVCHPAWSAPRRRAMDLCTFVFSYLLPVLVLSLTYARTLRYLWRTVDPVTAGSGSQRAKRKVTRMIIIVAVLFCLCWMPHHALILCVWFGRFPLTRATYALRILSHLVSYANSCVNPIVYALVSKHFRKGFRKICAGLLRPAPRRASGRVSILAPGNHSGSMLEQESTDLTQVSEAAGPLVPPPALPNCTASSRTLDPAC
Chain of human GALR3 receptor (human) (O60755 whole entry): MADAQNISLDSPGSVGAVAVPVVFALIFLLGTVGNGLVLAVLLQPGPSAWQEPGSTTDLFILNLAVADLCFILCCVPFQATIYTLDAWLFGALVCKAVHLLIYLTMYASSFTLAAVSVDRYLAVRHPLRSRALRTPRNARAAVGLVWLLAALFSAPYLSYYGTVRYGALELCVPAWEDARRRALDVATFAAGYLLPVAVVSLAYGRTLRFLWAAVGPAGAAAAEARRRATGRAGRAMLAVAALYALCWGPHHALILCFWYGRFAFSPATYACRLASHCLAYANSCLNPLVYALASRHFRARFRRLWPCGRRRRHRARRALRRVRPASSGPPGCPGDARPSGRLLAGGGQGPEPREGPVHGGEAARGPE

EC50, cAMP, LM(tk-) (rat GALR1 receptor (rat)): 0.52 nM | Oocyte EC50 for stimulation of GIRKs [1]: 343 nM | EC50, AA (arachidonic acid release), CHO #79 (rat GALR2 receptor (rat)): 2.41 nM
Molecule: C7 (peptide)

Ki (rat GALR3 receptor): 4.17 nM
B1: (-)9 to (+)29 galanin, porcine (peptide, UniProt P07480 24-61, looked up)
peptide: LGSPVKEKRGWTLNSAGYLLGPHAIDNHRSFHDKYGLA
notes: range -9 to +29; also called galanin -9 to +29
